For 2 substances, loss of FRET signal after EGF stimulation and reduction in FRET signal compared to WT and 3YF results are on record in doi:10.1101/2020.08.09.229716.

The test deals with Gβγ subunits (fluorescent-tagged, of the FRET Gαi activity reporter) (UniProt P62873). As to the kind of experiment: FRET or BRET.

As for “Gαi1-WT activity reporter (fluorescent-tagged Gαi) (from UniProt P63096 1-354) (natural protein)”, the loss of FRET signal after EGF stimulation was 50%. The substance “Gαi1-Y154H activity reporter (from UniProt P63096 1-354) (natural protein)” came in with a reduction in FRET signal compared to WT and 3YF of 80%.
